This note sets out measurements from article PMC9249791, “Molecular dissection of the glutamine synthetase-GlnR nitrogen regulatory circuitry in Gram-positive bacteria” (Nature Communications, 2022).

“And” between values parts separate entries of the source, which are not always exact repeats. Identical values can stand only once. Where no end group is shown, it is not given here.

The chains are these.
T1: Pp GS (Paenibacillus polymyxa, UniProt A0A0F0G8G2)
T1 construct: gene glnA2; full-length, synthetic gene in pET15b, N-terminal His-tag (removed by thrombin for crystallography), E. coli C41(DE3)
T1 sequence (A0A0F0G8G2 1-442): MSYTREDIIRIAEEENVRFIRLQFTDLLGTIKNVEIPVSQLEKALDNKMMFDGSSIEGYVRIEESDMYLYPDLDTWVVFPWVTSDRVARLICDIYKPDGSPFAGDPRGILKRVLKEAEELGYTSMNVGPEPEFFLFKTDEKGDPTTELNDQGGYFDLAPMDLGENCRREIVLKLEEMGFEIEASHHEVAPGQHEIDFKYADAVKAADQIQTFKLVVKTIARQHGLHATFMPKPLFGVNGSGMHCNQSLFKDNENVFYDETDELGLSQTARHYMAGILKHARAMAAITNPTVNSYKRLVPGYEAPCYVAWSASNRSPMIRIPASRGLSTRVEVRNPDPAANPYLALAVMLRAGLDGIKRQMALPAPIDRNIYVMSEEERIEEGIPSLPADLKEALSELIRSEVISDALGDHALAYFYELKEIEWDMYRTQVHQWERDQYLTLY

T2: Sa GlnR(1-87) (S. aureus, UniProt Q53687 1-87)
T2 chain: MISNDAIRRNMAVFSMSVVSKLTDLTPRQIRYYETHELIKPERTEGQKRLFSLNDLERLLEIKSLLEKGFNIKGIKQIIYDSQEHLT

B1: Lm GlnR(1-87), His-tag removed (crystallography) (domain or fragment, L. monocytogenes, UniProt L8DSZ4 1-87, looked up)
chain: MSEKEIRRSMPLFPIGPVMKLTDLTARQIRYYEDQGLIHPARNQGNHRLYSLQDIDVLLEIKDYLNDGLNIAGIKKMYQMQQKESKE
notes: GlnR of L. monocytogenes (122 residues), residues 1-87; Dimer on the 21 bp operator DNA, generated by crystallographic symmetry; also called Lm GlnR-DNA complex; source: E. coli C41(DE3), purified (cobalt NTA, thrombin digestion, Ni-NTA); not shown: His-tag, N-terminal, cleaved
B2: Bacillus subtilis glutamine synthetase (enzyme, B. subtilis)
chain: MAKYTREDIEKLVKEENVKYIRLQFTDILGTIKNVEIPVSQLGKALDNKVMFDGSSIEGFVRIEESDMYLYPDLNTFVIFPWTAEKGKVARFICDIYNPDGTPFEGDPRNNLKRILKEMEDLGFSDFNLGPEPEFFLFKLDEKGEPTLELNDKGGYFDLAPTDLGENCRRDIVLELEEMGFEIEASHHEVAPGQHEIDFKYAGAVRSCDDIQTFKLVVKTIARKHGLHATFMPKPLFGVNGSGMHCNLSLFKNGVNAFFDENADLQLSETAKHFIAGIVKHATSFTAVTNPTVNSYKRLVPGYEAPCYVAWSAQNRSPLIRIPASRGISTRVEVRSVDPAANPYLALSVLLAAGLDGIKNKLEAPAPIDRNIYVMSKEERMENGIVDLPATLAEALEEFKSNEVMVKALGEHLFEHFIEAKEIEWDMFRTQVHPWEREQYMSQY
notes: glutamine synthetase (GS, class GSI-alpha) of B. subtilis; gene bought from Genscript, in pET15b; Dodecamer as apo protein; tetradecamer (14 copies) in the complexes with TnrA, GlnR and the GlnR C-tail peptide; The His-tag was removed only for crystallography; also called Bs GS; source: E. coli C41(DE3), purified (cobalt NTA); copies: 12
B3: Bs GlnR C-tail peptide (peptide)
peptide: MQAGRFQRGNTFRQGDMSRFFH
notes: C-tail residues of GlnR of B. subtilis; also called Bs GlnR peptide; source: synthetic peptide, bought: Genscript
B4: Bacillus subtilis TnrA, full length (natural protein, B. subtilis, UniProt Q45666 1-110, looked up)
chain: MTTEDHSYKDKKVISIGIVSELTGLSVRQIRYYEERKLIYPQRSSRGTRKYSFADVERLMDIANKREDGVQTAEILKDMRKKEQMLKNDPQVRKKMLEGQLNAHFRYKNR
notes: TnrA transcription regulator (MerR-like) of B. subtilis; Its production is not described here; also called FL TnrA; Bs TnrA

The target of one data set is T1, Pp GS. Kind of data set: X-ray crystal structure […] Å. Type of data set: binding. The following applies: formed in situ from 5 mM ATP and 5 mM Met-Sox with 5 mM MgCl2; with Met-Sox-P.
Data set [1] deals with Listeria monocytogenes glutamine synthetase (L. monocytogenes). Kind of data set: cryo-EM structure; GS (0.75-1.0 mg/mL) with 2.5 or 5 mM GlnR C-tail peptide, 30 min at rt; Buffer B (12.5 mM Tris pH 7.5, 20 mM glutamine, 5 mM MgCl2, 150 mM NaCl, 2.5% glycerol, 1 mM BME).
Data set [2] has as its target fluoresceinated Lm GlnR C-tail peptide (L. monocytogenes). In words: fluorescence polarisation; FBI-GS against the corresponding fluoresceinated GlnR C-tail; 25 mM Tris pH 7.5, 100 mM NaCl, 5 mM MgCl2, 20 mM glutamine; three technical repeats. In general terms: Polarisation of emitted light reports the rotation of a fluorescent probe.
Data set [3] concerns the target Listeria monocytogenes glutamine synthetase (L. monocytogenes). Kind of data set: cryo-EM structure; apo GS without peptide, 0.9-1.0 mg/mL, exchanged into Buffer B.
The target of data set [4] is Listeria monocytogenes glutamine synthetase, His-tag removed (crystallography) (L. monocytogenes). In words: crystal structure; GS reacted with 5 mM MgCl2, 5 mM ATP and 5 mM Met-Sox (Met-Sox-P-ADP transition state complex); hanging drop, rt.
The target of data set [5] is Paenibacillus polymyxa glutamine synthetase (P. polymyxa). In words: cryo-EM structure; GS (0.75-1.0 mg/mL) with 2.5 or 5 mM GlnR C-tail peptide, 30 min at rt; Buffer B (12.5 mM Tris pH 7.5, 20 mM glutamine, 5 mM MgCl2, 150 mM NaCl, 2.5% glycerol, 1 mM BME).
The target of data set [6] is fluoresceinated Pp GlnR C-tail peptide (P. polymyxa). In words: fluorescence polarisation; FBI-GS against the corresponding fluoresceinated GlnR C-tail; 25 mM Tris pH 7.5, 100 mM NaCl, 5 mM MgCl2, 20 mM glutamine; three technical repeats.
In data set [7] the target is Paenibacillus polymyxa glutamine synthetase (P. polymyxa). In words: cryo-EM structure; apo GS without peptide, 0.9-1.0 mg/mL, exchanged into Buffer B.
Data set [8] addresses Paenibacillus polymyxa glutamine synthetase, His-tag removed (crystallography) (P. polymyxa). In words: crystal structure; GS reacted with 5 mM MgCl2, 5 mM ATP and 5 mM Met-Sox (Met-Sox-P-ADP transition state complex); hanging drop, rt.
Data set [9] deals with Sa GlnR(1-87), His-tag removed (crystallography) (S. aureus) (UniProt Q53687). In words: crystal structure; GlnR(1-87) with a 21-mer operator DNA (protein:DNA 1:1.5); GlnR dimer on the DNA.
Data set [10] addresses Staphylococcus aureus glutamine synthetase (S. aureus). In words: cryo-EM structure; GS (0.75-1.0 mg/mL) with 2.5 or 5 mM GlnR C-tail peptide, 30 min at rt; Buffer B (12.5 mM Tris pH 7.5, 20 mM glutamine, 5 mM MgCl2, 150 mM NaCl, 2.5% glycerol, 1 mM BME).
The target of data set [11] is fluoresceinated Sa GlnR C-tail peptide (S. aureus). In words: fluorescence polarisation; FBI-GS against the corresponding fluoresceinated GlnR C-tail; 25 mM Tris pH 7.5, 100 mM NaCl, 5 mM MgCl2, 20 mM glutamine; three technical repeats.
Data set [12] deals with Staphylococcus aureus glutamine synthetase (S. aureus). Kind of data set: cryo-EM structure; apo GS without peptide, 0.9-1.0 mg/mL, exchanged into Buffer B.
Data set [13] addresses Staphylococcus aureus glutamine synthetase, His-tag removed (crystallography) (S. aureus). In words: crystal structure; GS reacted with 5 mM MgCl2, 5 mM ATP and 5 mM Met-Sox (Met-Sox-P-ADP transition state complex); hanging drop, rt.
Data set [14] deals with the molecule itself. In words: crystal structure; GlnR(1-87) with a 21-mer operator DNA (protein:DNA 1:1.5); GlnR dimer on the DNA.
Data set [15] concerns the target fluoresceinated Bs GlnR C-tail peptide (B. subtilis). In words: fluorescence polarisation; FBI-GS against the corresponding fluoresceinated GlnR C-tail; 25 mM Tris pH 7.5, 100 mM NaCl, 5 mM MgCl2, 20 mM glutamine; three technical repeats.
Data set [16] deals with the molecule itself. Kind of data set: negative stain EM; apo Bs GS alone; 25 mM Tris pH 7.5, 200 mM NaCl, 5% glycerol, 1 mM MgCl2; 20-50 μg/mL; 2D class averages.
Data set [17] deals with the molecule itself. In words: cryo-EM structure; GS (0.75-1.0 mg/mL) with 2.5 or 5 mM GlnR C-tail peptide, 30 min at rt; Buffer B (12.5 mM Tris pH 7.5, 20 mM glutamine, 5 mM MgCl2, 150 mM NaCl, 2.5% glycerol, 1 mM BME).
Another data set addresses T2, Sa GlnR(1-87). Kind of data set: FP.
The target in data set [18] is B2. In words: cryo-EM structure; GS (0.75-1.0 mg/mL) with 2.5 or 5 mM GlnR C-tail peptide, 30 min at rt; Buffer B (12.5 mM Tris pH 7.5, 20 mM glutamine, 5 mM MgCl2, 150 mM NaCl, 2.5% glycerol, 1 mM BME). As to conditions: both partners purified.
The target of data set [19] is B2. Kind of data set: negative stain EM; Bs GS mixed 1:1 with FL TnrA; 25 mM Tris pH 7.5, 200 mM NaCl, 5% glycerol, 1 mM MgCl2, 5 mM glutamine; 2D class averages. As to conditions: both partners purified.

In the case of `Nc1ncnc2c1ncn2[C@@H]1O[C@H](COP(=O)(O)OP(=O)(O)O)[C@@H](O)[C@H]1O` [ADP], on Pp GS, the “X-ray crystal structure 1.98 Å” value is “densities for Met-Sox-P and ADP were clearly observed in each enzyme”.

Usually stoichiometry N stands for a count of units in the complex or per binding partner. Broadly, the Kd is the equilibrium constant for the complex coming apart. Turning to “Listeria monocytogenes glutamine synthetase (enzyme)”, the values for the stoichiometry N in data set [1] and in [3] were 14 and 12, respectively. For the same molecule, the Kd in data set [2] stood at 27.2 µM.

In data set [4], “Listeria monocytogenes glutamine synthetase, His-tag removed (crystallography) (enzyme)” returned a stoichiometry N of 12.

As for “Paenibacillus polymyxa glutamine synthetase (enzyme)”, the stoichiometry N in data set [5] was 14 and 12; in data set [7], 12 and 14. This molecule yielded a Kd in data set [6] of 18.7 µM.

Turning to “Paenibacillus polymyxa glutamine synthetase, His-tag removed (crystallography) (enzyme)”, the stoichiometry N in data set [8] turned out to be 12.

“Sa GlnR(1-87), His-tag removed (crystallography) (from UniProt Q53687 1-87) (domain or fragment)” yielded a stoichiometry N in data set [9] of 2.

In the case of “Staphylococcus aureus glutamine synthetase (enzyme)”, the stoichiometry N in [10] and in data set [12] was 12 throughout. In [11], this molecule displayed a Kd of 7.2 µM.

As to “Staphylococcus aureus glutamine synthetase, His-tag removed (crystallography) (enzyme)”, the stoichiometry N in data set [13] came to 12.

Consider B1, for which the “stoichiometry N” value in data set [14] came to 2.

Molecule B2 returned a Kd in [15] of 4.2 µM. In addition, the results for the “stoichiometry N” value in data set [16] and in data set [17] were 12 and 14, respectively.

The molecule fluorescein-KPIGETLPINRGDLSRFIK [fluoresceinated Sa GlnR C-tail peptide] returned a Kd with Sa GlnR(1-87) of 56 µM.

With B3, the binding result in [18] is given as “binds”.

For the molecule B4, in data set [19], the binding result is recorded as “binds”.
